In US20240325555A1 (LANOVA MEDICINES, published 2024):
Where two headings read alike, the source gives them in different places.

T1: human LIV-1 (human, UniProt Q13433 29-755)
T1 sequence (looked up): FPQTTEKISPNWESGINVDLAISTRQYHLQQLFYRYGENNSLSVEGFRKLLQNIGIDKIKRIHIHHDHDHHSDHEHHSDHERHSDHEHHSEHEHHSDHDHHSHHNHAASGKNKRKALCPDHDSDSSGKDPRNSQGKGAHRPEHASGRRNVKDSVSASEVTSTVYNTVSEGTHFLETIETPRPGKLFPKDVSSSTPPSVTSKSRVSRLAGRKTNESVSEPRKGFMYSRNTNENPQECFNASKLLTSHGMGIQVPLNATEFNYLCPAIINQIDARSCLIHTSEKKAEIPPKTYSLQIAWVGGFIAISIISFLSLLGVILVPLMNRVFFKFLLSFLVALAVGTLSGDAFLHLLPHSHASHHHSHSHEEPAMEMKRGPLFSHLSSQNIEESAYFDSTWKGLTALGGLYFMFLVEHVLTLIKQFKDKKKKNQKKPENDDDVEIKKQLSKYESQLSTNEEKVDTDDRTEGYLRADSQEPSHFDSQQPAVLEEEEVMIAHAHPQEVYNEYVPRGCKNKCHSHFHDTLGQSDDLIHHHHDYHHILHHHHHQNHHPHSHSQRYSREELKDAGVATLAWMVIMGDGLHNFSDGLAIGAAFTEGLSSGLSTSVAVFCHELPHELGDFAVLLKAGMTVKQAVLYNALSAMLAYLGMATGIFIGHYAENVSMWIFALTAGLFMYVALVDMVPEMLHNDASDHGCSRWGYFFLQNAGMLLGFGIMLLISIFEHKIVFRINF

T2: mouse LIV-1 (mouse, UniProt Q8C145 21-765)
T2 construct: whole, on cells
T2 sequence (looked up): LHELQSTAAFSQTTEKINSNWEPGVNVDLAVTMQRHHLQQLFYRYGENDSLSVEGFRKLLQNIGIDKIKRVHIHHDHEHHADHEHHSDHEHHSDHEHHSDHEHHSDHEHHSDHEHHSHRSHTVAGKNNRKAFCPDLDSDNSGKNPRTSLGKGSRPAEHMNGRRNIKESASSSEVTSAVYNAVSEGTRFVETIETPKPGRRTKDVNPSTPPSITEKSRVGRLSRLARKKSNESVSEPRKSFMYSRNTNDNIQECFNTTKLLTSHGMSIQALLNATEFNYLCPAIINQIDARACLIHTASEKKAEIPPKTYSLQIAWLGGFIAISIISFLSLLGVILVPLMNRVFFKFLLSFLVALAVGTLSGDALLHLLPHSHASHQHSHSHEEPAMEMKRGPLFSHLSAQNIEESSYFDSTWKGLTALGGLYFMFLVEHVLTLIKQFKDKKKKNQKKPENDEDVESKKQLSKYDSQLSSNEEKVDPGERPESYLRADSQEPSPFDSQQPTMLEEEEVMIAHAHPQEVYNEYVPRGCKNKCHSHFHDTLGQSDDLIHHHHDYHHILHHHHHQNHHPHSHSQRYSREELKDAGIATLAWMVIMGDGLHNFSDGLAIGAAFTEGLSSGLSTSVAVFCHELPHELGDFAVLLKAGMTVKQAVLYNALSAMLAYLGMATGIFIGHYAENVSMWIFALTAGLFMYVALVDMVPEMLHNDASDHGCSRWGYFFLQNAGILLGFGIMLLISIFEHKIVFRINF

T3: rat LIV-1 (rat, UniProt Q4V887 21-741)
T3 construct: whole, on cells
T3 sequence (looked up): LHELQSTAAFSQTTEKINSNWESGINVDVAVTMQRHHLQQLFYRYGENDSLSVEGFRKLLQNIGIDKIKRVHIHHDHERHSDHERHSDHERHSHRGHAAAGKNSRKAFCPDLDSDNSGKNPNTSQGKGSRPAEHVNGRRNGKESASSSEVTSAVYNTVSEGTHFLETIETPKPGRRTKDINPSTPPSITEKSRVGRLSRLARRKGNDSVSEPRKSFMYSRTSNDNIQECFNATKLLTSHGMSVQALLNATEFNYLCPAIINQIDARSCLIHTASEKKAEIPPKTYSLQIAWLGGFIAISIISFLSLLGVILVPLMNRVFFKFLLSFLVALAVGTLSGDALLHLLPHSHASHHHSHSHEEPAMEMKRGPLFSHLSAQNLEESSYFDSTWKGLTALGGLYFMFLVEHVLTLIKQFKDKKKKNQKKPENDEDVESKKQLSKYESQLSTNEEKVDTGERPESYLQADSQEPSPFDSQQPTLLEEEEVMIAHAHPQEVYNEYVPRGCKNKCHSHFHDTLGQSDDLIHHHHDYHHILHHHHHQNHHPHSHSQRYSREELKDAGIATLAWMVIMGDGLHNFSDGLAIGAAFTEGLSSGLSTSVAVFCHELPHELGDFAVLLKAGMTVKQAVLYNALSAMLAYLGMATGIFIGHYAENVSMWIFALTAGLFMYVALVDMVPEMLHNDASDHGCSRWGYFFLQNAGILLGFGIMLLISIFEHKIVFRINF


What was measured:
rhesus LIV-1 = rhesus LIV-1 (rhesus, UniProt H9FSJ2 30-735); assay: FACS, HEK293/Rhe_LIV-1 cells
rhesus LIV-1, sequence (H9FSJ2 entry or part of it): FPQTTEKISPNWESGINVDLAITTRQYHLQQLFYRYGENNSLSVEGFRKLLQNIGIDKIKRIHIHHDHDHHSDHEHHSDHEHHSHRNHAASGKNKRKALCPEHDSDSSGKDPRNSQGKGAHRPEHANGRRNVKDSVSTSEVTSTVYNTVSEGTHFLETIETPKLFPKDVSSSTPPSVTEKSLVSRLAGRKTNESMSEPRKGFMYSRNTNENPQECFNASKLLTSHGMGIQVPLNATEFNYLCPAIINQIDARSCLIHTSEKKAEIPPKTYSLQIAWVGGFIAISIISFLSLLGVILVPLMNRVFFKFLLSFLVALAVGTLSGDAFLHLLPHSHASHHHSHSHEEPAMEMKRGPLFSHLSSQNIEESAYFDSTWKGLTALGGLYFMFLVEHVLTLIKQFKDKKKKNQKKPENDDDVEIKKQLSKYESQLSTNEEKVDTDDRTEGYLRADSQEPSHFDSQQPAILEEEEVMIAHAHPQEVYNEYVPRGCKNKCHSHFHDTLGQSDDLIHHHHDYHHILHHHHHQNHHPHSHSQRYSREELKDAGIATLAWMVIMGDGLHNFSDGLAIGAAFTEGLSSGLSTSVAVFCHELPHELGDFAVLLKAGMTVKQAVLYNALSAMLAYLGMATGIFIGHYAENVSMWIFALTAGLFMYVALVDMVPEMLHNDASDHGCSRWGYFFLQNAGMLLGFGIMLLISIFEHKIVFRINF
Procedure: (§1) Humanized antibodies 5D6B10.z7, 124H4D11.p2.z4 and 290F10G10.p1.z2 were selected for further testing. In this example, FACS cross binding of these selected antibodies to LIV-1 of different species were assessed using flow cytometry.
(§2) Cell based binding of optimal leads to different species LIV-1 expressing cells were assessed using flow cytometry. Briefly, the cells were incubated with optimal leads (from 100 nM, 6 folds dilution, 8 points). After incubation at 4° C. for 60 minutes, the cells were washed with 2% FBS/PBS buffer twice, then stained with fluorescent conjugated secondary antibody at 4° C. for 30 minutes. After that the cells were washed twice and resuspended in 80 μL of 2% FBS/PBS buffer. Fluorescent signal of binding was detected using Agilent. The EC50 was calculated using the GraphPad Software (LaJolla, CA).

human LIV-1 [1] = target: T1, human LIV-1; assay: cell-based or functional assay
cynomolgus LIV-1 [2] = target: T4, cynomolgus LIV-1 (cynomolgus, UniProt A0A2K5WH46 30-741); assay: FACS, HEK293/Cyno_LIV-1 cells
Procedure: as §2
Target sequence in this assay (A0A2K5WH46 entry or part of it): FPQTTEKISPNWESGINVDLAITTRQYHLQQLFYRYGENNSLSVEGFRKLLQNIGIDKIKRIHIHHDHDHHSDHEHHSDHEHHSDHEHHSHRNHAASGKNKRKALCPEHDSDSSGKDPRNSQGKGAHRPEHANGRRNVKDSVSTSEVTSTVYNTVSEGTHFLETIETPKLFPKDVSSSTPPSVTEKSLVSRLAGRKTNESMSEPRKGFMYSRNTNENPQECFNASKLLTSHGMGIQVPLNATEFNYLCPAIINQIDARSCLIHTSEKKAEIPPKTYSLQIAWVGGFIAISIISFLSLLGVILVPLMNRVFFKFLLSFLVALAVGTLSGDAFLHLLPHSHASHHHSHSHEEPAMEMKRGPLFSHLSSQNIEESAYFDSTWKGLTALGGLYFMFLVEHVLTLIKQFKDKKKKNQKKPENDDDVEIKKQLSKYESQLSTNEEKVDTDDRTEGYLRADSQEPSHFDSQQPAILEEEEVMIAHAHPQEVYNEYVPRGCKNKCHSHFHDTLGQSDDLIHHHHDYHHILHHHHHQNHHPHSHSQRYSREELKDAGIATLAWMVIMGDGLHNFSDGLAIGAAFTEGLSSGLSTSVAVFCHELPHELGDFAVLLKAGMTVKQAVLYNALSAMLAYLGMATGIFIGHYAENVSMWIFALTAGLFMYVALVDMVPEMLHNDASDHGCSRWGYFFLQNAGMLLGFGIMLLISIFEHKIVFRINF

human LIV-1 [3] = target: T1, human LIV-1; assay: cell-based or functional assay; remark: listed apart in the source
human LIV-1 [4] = target: T1, human LIV-1; assay: cell-based or functional assay; remark: listed apart in the source
cynomolgus LIV-1 [5] = target: T4, cynomolgus LIV-1; assay: FACS, HEK293/Cyno_LIV-1 cells; remark: listed apart in the source
Target sequence in this assay (A0A2K5WH46 entry or part of it): as above

human LIV-1 [6] = target: T1, human LIV-1; assay: FACS, HEK293/H_LIV-1 cells
Procedure: In this example, cell based binding of humanized antibodies (hu Abs) on human LIV-1-expressing cells were assessed using flow cytometry.
Cell based binding of hu-Abs on human LIV-1 expressing cells were assessed using flow cytometry. Briefly, the HEK293/H_LIV-1 cells were incubated with hu-Abs (from 100 nM, 6 folds dilution, 8 points). After incubation at 4° C. for 60 minutes, the cells were washed with FACS buffer twice, then stained with fluorescent conjugated secondary antibody at 4° C. for 30 minutes. After that the cells were washed twice and analyzed by flow cytometry.

human LIV-1 [7] = target: T1, human LIV-1; assay: FACS, HEK293/H_LIV-1 cells; remark: listed apart in the source
Procedure, shortened: (§3)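 HEK293 cells over-expressing human or cyno LIV-1 incubated with chimeric Abs (from 100 nM, 5-fold dilutions, 8 points) for 60 min at 4 °C, then fluorescent secondary antibody 30 min at 4 °C; washes in 2% FBS/PBS. Binding read by flow cytometry; EC50 from the titration curve.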

cynomolgus LIV-1 [8] = target: T4, cynomolgus LIV-1; assay: FACS, HEK293/Cyno_LIV-1 cells; remark: listed apart in the source
Procedure, shortened: as §3

mouse LIV-1 = target: T2, mouse LIV-1; assay: FACS, HEK293/Mouse_LIV-1 cells
Procedure: as §1, §2

rat LIV-1 = target: T3, rat LIV-1; assay: FACS, HEK293/Rat_LIV-1 cells
Procedure: as §1, §2

Row | EC50 (rhesus LIV-1) | Top (MFI) (rhesus LIV-1) | Internalization EC50 (human LIV-1 [1]) | Internalization Top (RFU) (human LIV-1 [1]) | EC50 (cynomolgus LIV-1 [2]) | Top (MFI) (cynomolgus LIV-1 [2]) | ADCC reporter EC50 (human LIV-1 [3]) | ADCC reporter Top (RFU) (human LIV-1 [3]) | EC50 (human LIV-1 [7]) | Top (MFI) (human LIV-1 [7]) | EC50 (cynomolgus LIV-1 [8]) | Top (MFI) (cynomolgus LIV-1 [8]) | Binder | Cell viability(%) (human LIV-1 [4]) | Cytotoxicity IC50 (human LIV-1 [4]) | other results
1 | 0.27 nM | 38400 MFI | 12.7 nM | 145000 RFU | 0.53 nM | 13900 MFI | 0.3 nM | 121000 RFU | 0.21 nM | 70100 MFI | 0.17 nM | 41100 MFI | 5D6B10 (antibody, V domains shown, Tested as chimeric antibody) VH: QVQLKQSGPGLVQPSQSLSITCTVSGFSLTTYGIHWVRQSPGKGLEWLGVIWTGGTTDYNAAFISRLSISKDNSKSQVFFKMNSLQANDTAIYYCARGPSSYWGQGTLVTVSA VL: DIVMTQSQKFMSTSVGDRVSVTCKASQNVDTNVVWYQQKPGQSPKALIHSASYRYSGVPDRFTGSGSGTDFTLTISNVQSEDLAEYFCQQYNNYPWTFGGGTKLEIK | 16.4% | 1.55 nM | EC50 (cynomolgus LIV-1 [5]): 0.39 nM; Top (MFI) (cynomolgus LIV-1 [5]): 25700 MFI; EC50 (human LIV-1 [6]): 0.29 nM; Top (MFI) (human LIV-1 [6]): 61900 MFI
2 | 0.22 nM | 5270 MFI | 3.5 nM | 298000 RFU | 0.26 nM | 1560 MFI | 0.4 nM | 177000 RFU | 0.38 nM | 9570 MFI | 0.53 nM | 2940 MFI | 290F10G10 (antibody, V domains shown, Tested as chimeric antibody) VH: IQLQQSGAELARPGASVKLSCKASGYTFTSYWIHWVKERPGQGLEWIGTIYPGDGDTRSTQKFKDKATVTAEKSSSTVYMQLSSLASEDSAVYYCTRSLIHDDYDKYYFDYWGQGTTLTVSS VL: DIQMTQSPSSLSASLGGKVTITCKARQDINKYIAWYQHKPGKGPRLLIHYTSILQPGIPSRFSGSGSGRDYSFSISNLEPEDIATYYCLQYDYFFTFGSGTKLEIK | 3.46% | 1.33 nM | EC50 (mouse LIV-1): 51.1 nM; Top (MFI) (mouse LIV-1): 5550 MFI; EC50 (rat LIV-1): 72.2 nM; Top (MFI) (rat LIV-1): 6820 MFI
